Data reported in US7115410 (ELAN PHARMACEUTICALS, dated 2006).
Square brackets hold non-standard residues; d marks the D form. Sta = CC(C)C[C@H](N)[C@@H](O)CC(=O)O

Legend:
β-secretase 46-452 = molecular target: T1, β-secretase 46-452 (human, UniProt P56817 46-452); assay: binding to P10-P4′staD→V affinity matrix
T1 construct: C-terminally truncated form lacking the transmembrane region

[1] = molecular target: T2, recombinant β-secretase from 293T or Cos A2 cells transfected with the full-length construct, form with … (human, UniProt P56817 46-501); assay: affinity chromatography on P10-P4′staD→V Sepharose, extracts of transfected 293T and COS A2 cells, pH 4.5
T2 construct: also called Recombinant, 293T; Recombinant, CosA2
T2 sequence (P56817 46-501): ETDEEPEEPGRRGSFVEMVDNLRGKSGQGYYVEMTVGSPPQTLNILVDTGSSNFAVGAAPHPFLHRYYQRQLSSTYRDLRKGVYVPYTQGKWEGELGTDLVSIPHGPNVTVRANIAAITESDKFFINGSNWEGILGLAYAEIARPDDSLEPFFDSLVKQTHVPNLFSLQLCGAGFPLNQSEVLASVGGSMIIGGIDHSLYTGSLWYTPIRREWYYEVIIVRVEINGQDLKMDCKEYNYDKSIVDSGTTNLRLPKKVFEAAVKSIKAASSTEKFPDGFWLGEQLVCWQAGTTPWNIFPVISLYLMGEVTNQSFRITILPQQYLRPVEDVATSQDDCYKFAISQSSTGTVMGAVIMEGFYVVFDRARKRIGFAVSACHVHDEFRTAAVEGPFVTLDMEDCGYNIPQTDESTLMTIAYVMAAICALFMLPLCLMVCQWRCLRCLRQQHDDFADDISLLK
Experimental: (§1) The cell pellet was resuspended by homogenizing for 30 seconds using a handheld homogenizer (0.5 ml/pellet of approximately 10^6 cells in extraction buffer consisting of 20 mM TRIS buffer, pH 7.5, 2 mM EDTA, 0.2% Triton X-100, plus protease inhibitors: 5 μg/ml E-64, 10 μg/ml pepstatin, 1 mM PMSF), centrifuged as maximum speed in a microfuge (40 minutes at 4 degrees C.). Pellets were suspended in original volume of extraction buffer, then stirred at 1 hour at 4 degrees C. with rotation, and centrifuted again in a microfuge at maximum speed for 40 minutes. The resulting supernatant was saved as the "extract." The extract was then diluted with 20 mm sodium acetate, pH 5.0, 2 mM EDTA and 0.2% Triton X-100 (SP buffer A), and 5 M NaCl was added to a final concentration of 60 mM NaCl. The pH of the solution was then adjusted to pH 5.0 with glacial acetic acid diluted 1:10 in water. Aliquots were saved ("SP load"). The SP load was passed through a 1 ml SP HiTrap column which was pre-washed with 5 ml SP buffer A, 5 ml SP buffer B (SP buffer A with 1 M NaCl) and 10 ml SP buffer A. An additional 2 ml of 5% SP buffer B was passed through the column to dissplace any remaining sample from the column. The pH of the SP flow-through was adjusted to pH 4.5 with 10× diluted acetic acid. This flow-through was then applied to a P10-P4'staD→V-Sepharose Affinity column, as described below. […]

[2] = molecular target: T3, recombinant β-secretase from 293T cells, minor form starting at Met-63 (human, UniProt P56817 63-501); assay: N-terminal sequencing of fractions from P10-P4′(statine)D→V Sepharose, 293T cells
T3 construct: C-terminus not determined
T3 sequence (P56817 63-501): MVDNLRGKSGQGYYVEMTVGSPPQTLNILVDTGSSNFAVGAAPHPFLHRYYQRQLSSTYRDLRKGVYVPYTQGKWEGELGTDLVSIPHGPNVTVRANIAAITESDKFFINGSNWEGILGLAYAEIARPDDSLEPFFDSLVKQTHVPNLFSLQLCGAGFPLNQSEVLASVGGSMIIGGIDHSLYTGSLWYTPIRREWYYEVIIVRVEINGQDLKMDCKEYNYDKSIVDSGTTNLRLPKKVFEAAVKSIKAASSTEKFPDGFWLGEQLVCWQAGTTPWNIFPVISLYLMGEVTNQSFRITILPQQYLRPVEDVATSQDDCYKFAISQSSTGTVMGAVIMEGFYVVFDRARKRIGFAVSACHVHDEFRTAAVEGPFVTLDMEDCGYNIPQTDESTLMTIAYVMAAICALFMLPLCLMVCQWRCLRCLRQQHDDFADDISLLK
Experimental: as §1

[3] = molecular target: T4, recombinant β-secretase from 293T cells, minor form starting at Thr-22 (human, UniProt P56817 22-501); assay: N-terminal sequencing of fractions from P10-P4′staD→V Sepharose, 293T cells
T4 construct: C-terminus not determined
T4 sequence (P56817 22-501): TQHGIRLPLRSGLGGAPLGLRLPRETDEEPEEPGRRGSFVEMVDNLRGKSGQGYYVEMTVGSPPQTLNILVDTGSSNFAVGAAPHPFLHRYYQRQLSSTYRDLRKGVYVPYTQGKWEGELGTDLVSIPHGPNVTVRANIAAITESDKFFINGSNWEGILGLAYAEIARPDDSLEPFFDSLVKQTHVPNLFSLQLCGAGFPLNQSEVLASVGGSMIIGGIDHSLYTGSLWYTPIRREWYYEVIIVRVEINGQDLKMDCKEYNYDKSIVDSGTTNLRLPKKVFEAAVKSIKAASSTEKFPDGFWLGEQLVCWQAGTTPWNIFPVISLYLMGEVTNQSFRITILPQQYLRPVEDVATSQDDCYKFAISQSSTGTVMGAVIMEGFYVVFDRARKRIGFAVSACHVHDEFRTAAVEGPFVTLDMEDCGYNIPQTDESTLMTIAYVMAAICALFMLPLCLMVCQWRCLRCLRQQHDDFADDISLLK
Experimental: as §1

[4] = molecular target: T5, recombinant β-secretase from Cos A2 cells, major form resulting from Gly-58 cleavage (human, UniProt P56817 58-501); assay: N-terminal sequencing of fractions from P10-P4′(statine)D→V Sepharose, Cos A2 cells
T5 construct: C-terminus not determined
T5 sequence (P56817 58-501): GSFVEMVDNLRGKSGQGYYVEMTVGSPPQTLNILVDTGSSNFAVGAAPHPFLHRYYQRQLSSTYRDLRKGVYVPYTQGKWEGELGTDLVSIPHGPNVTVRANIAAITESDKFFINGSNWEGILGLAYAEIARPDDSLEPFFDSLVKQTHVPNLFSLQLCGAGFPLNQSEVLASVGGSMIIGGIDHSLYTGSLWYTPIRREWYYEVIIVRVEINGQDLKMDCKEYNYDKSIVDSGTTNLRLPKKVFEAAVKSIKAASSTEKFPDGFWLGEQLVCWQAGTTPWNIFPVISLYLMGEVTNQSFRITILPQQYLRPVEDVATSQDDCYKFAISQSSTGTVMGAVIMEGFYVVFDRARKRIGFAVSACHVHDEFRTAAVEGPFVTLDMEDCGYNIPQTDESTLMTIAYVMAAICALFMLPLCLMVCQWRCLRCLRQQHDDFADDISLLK
Experimental: as §1

Measured: binding result

T1 sequence (P56817 46-452 limits assumed): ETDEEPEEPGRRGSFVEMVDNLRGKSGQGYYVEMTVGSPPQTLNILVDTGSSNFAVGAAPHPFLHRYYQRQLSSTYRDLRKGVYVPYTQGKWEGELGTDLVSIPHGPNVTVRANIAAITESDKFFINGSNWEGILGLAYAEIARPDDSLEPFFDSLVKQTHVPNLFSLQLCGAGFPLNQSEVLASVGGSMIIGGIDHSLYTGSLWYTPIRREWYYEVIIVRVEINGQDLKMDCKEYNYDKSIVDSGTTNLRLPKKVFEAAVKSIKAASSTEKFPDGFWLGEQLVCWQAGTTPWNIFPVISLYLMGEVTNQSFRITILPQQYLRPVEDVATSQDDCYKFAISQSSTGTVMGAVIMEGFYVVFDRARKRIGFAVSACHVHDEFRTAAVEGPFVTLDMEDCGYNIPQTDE

B1: P10-P4′staD→V (NH2-KTEEISEVN[sta]VAEF-COOH) (peptide)
peptide: H-KTEEISEVN[Sta]VAEF-OH
notes: Synthetic statine peptide derived from the APPsw cleavage site with D→V at P1′; also called P10-P4′(statine)D→V
binds: all assays above
